# Test results taken from paper PMC9946822.
# Target: MtAHL1 (Medicago truncatula) (UniProt G7JGG2)
# Assay: EMSA
# Settings: EMSA as in Chen (ref. 37), 10 ng probe and 200 ng protein (titration 0-300 ng), SYBR Gold stain; binding buffer, pH and temperature not stated; protein eluted …
# Chain of MtAHL1 (Medicago truncatula) (G7JGG2 entry or part of it): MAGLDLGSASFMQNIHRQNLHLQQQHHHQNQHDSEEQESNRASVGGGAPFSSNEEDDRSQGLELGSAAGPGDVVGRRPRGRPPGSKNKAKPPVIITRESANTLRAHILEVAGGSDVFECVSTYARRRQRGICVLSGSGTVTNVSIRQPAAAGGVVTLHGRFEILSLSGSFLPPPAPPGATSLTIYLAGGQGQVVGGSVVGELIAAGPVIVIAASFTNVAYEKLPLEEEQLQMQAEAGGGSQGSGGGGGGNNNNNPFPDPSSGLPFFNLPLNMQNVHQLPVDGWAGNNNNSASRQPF
sequence,measurement,value
CCCATTGTTTTTCCCCTTTGCGTGAAATAAGTGTAAAATTATTTTATCACTTTATATAGTAAAAAATCAAATGATATGTTTACATCAACAAAACAGTTTTTAATAATTATGTTGTTGTAATTAATAC (double strand) [probe D],binding,binds more weakly
CTTTCTTTTATACAAATCATAAAATTATTACTTATAAATAGAGCTCATTATTGTTTAACAACCTTTCATTATTATTTTTTATTTCTTAGCCAGCCTTTCATAATAGAG (double strand) [probe B],binding,binds more weakly
GAAAGTAATAATTTTGAGACATCTATTCTATGAGCCAAAGAGACAACTACGATACATCAACGTATTAAAGAGACATTTAATAATTATTTTAATTTTCAAAAAGTATTAATTAC (double strand) [probe C],binding,binds
GACAACTACGATACATCAACGTATTAAAGAGACATTTAATAATTATTTTAATTTTCAAAAAGTATTAATTACAACAACATAATTATTAAAAACTGTTTTGTTGATGTAAACATATC (double strand) [probe G],binding,binds
GAGATAGGAAAACCAATATTATATTATGTTGATATGAGTGGGTGTGGAATCACACAACGTGAATAAGGTCTCTTGTTTGAGTCTTGTGGTTAAATAAAACGTG (double strand) [probe A],binding,binds more weakly
GTTAAACAATAATGAGCTCTATTTATAAGTAATAATTTTATGATTTGTATAAAAGAAAGTAATAATTTTGAGACATCTATTCTATGAGCCAAAGAGACAAC (double strand) [probe F],binding,binds more weakly
GTTTAACAACCTTTCATTATTATTTTTTATTTCTTAGCCAGCCTTTCATAATAGAGATAGGAAAACCAATATTATATTATGTTGATATGAGTGGGTGTGGAATCA (double strand) [probe E],binding,binds more weakly
